Measured values reported in patent US20260250318A1, “COMPOSITIONS AND METHODS FOR CROSSING THE BLOOD BRAIN BARRIER” (VOYAGER THERAPEUTICS, INC., priority 2022, published 2026).
Changes are numbered by the printed parent chain.

T1: ALPL (Homo sapiens, UniProt P05186)
T1 sequence (P05186 18-501): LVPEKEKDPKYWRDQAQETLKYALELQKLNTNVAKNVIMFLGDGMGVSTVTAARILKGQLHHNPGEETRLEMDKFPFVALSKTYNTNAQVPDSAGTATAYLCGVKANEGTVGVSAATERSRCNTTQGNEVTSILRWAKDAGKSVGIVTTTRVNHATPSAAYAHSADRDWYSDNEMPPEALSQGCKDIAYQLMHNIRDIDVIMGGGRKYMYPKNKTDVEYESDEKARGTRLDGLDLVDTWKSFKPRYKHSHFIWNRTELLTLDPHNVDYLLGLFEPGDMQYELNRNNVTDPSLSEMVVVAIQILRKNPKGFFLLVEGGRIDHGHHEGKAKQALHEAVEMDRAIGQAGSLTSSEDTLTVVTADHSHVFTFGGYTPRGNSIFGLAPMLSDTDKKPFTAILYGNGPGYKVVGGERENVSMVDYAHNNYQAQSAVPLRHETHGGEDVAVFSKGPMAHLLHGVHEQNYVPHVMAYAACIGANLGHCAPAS

T2: ALPL (Homo sapiens, UniProt P05186)
T2 construct: expressed in transfected cells; host or cells: HEK 293T
T2 sequence (P05186 whole entry, looked up): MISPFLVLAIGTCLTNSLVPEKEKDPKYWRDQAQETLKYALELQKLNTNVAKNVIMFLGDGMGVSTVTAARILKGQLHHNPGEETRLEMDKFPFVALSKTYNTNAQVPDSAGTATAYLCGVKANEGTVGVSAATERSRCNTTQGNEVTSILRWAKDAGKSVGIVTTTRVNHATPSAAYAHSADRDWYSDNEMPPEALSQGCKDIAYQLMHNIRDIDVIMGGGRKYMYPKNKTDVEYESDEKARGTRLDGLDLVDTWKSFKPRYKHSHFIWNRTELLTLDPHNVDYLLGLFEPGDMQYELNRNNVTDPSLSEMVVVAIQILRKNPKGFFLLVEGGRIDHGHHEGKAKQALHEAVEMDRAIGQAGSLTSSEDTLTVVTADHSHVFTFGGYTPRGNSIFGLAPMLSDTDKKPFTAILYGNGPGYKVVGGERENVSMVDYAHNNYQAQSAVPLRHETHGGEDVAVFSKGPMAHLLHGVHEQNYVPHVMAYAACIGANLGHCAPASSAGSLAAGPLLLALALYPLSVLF

B1: TTM-001: AAV9 capsid variant comprising SPHSKA (SEQ ID NO: 941) in loop IV (protein)
chain 1: MAADGYLPDWLEDNLSEGIREWWALKPGAPQPKANQQHQDNARGLVLPGYKYLGPGNGLDKGEPVNAADAAALEHDKAYDQQLKAGDNPYLKYNHADAEFQERLKEDTSFGGNLGRAVFQAKKRLLEPLGLVEEAAKTAPGKKRPVEQSPQEPDSSAGIGKSGAQPAKKRLNFGQTGDTESVPDPQPIGEPPAAPSGVGSLTMASGGGAPVADNNEGADGVGSSSGNWHCDSQWLGDRVITTSTRTWALPTYNNHLYKQISNSTSGGSSNDNAYFGYSTPWGYFDFNRFHCHFSPRDWQRLINNNWGFRPKRLNFKLFNIQVKEVTDNNGVKTIANNLTSTVQVFTDSDYQLPYVLGSAHEGCLPPFPADVFMIPQYGYLTLNDGSQAVGRSSFYCLEYFPSQMLRTGNNFQFSYEFENVPFHSSYAHSQSLDRLMNPLIDQYLYYLSKTINGSGSPHSKAQNQQTLKFSVAGPSNMAVQGRNYIPGPSYRQQRVSTTVTQNNNSEFAWPGASSWALNGRNSLMNPGPAMASHKEGEDRFFPLSGSLIFGKQGTGRDNVDADKVMITNEEEIKTTNPVATESYGQVATNHQSAQAQAQTGWVQNQGILPGMVWQDRDVYLQGPIWAKIPHTDGNFHPSPLMGGFGMKHPPPQILIKNTPVPADPPTAFNKDKLNSFITQYSTGQVSVEIEWELQKENSKRWNPEIQYTSNYYKSNNVEFAVNTEGVYSEPRPIGTRYLTRNL
chain 2: GSGSPHSKAQNQQT
B2: TTM-002: AAV9 capsid variant comprising HDSPHK (SEQ ID NO: 2) in loop IV (protein)
chain 1: B1 chain 1 with S454H, G455D, S459K, K460S, A461G
chain 2: GHDSPHKSGQNQQT

Tests used:
[1] = biological target: T1, ALPL; assay type: cell-based; parameters: expressed in transfected cells; host or cells: HEK 293T; conditions: viral genomes, 2 or 3 hours post-incubation, relative to pCMV6
Description: Binding and internalization of AAV capsid variants comprising the TTM-001 capsid variant, the TTM-002 capsid variant, or the AAV9 control capsid was also investigated in cells engineered to express ALPL. HEK 293T cells were transfected via calcium phosphate transfection with a plasmid expressing ALPL, an AAVR positive control, or a pCMV6 negative control. At 24 hours post-transfection, the HEK 293T cells expressing the ALPL receptor were incubated with an AAV particle comprising the TTM-001 capsid variant, the TTM-002 capsid variant, or an AAV9 control capsid protein, expressing a GFP payload. At 2 or 3-hours post-incubation, cells were washed to remove unbound AAV particles and DNA was extracted to quantify viral genomes.

[2] = biological target: T2, ALPL; assay type: cell-based; conditions: for fold increase in transduction by luciferase assay in cells expressing ALPL: relative to pCMV6 transfected cells, 24 hours post-transduction; for Luciferase Activity (RLU): Table 30, ALPL transfected cells
Description: Briefly, a transduction assay was performed in that HEK 293T cells were transfected via calcium phosphate transfection with a plasmid expressing ALPL, an AAVR positive control, or a pCMV6 negative control (250 ng or 500 ng of plasmid). AAVR is a universal AAV entry factor involved in AAV transduction. […] At 24-hours post-transduction, GFP expression and luciferase activity were measured to quantify and observe AAV cellular transduction. […] The TTM-002, TTM-006, TTM-018, and TTM-019 capsid variants all comprised the SPH motif immediately subsequent to position 455, numbered relative to SEQ ID NO: 138 and a positive residue in one of the next three residues subsequent to the SPH motif.
To determine if the TTM-001 and TTM-002 capsid variants could bind to both the human ALPL protein (NM_000478.6, which is incorporated by reference herein) and the mouse ALPL ortholog (NM_001287172.1, which is incorporated by reference herein), HEK 293T cells were transfected via calcium phosphate transfection with a plasmid expressing human ALPL, the murine ortholog of ALPL, or a pCMV6 negative control. At 24 hours post-transfection, the HEK 293T cells expressing the ALPL receptor were transduced with an AAV particle comprising the TTM-001 capsid variant, the TTM-002 capsid variant, or an AAV9 control capsid protein, expressing a Luc2-GFP payload. At 24-hours post-transduction, luciferase activity (RLU) was measured to quantify AAV cellular transduction.

[3] = biological target: T1, ALPL; experiment: SPR (Biacore 8K) binding of peptide ligands to ALPL; conditions: 50 μM peptides or 250 nM capsids flowed over
Description: Binding and interaction between the peptides and the ALPL receptor were measured by Surface Plasmon Resonance (SPR) on a Biacore 8K instrument. The biotinylated peptides in Table 37 were captured on the streptavidin biosensor chip and 1000 nM of ALPL and buffer were passed over the peptides to monitor binding. […] His-tagged ALPL was then captured on the chip pre-immobilized with anti-His antibody, and 50 μM of the peptides in Table 37 or 250 nM of the AAV9 control capsid, the TTM-001 capsid variant (SEQ ID NO: 981), or the TTM-002 capsid variant (SEQ ID NO: 982) were flowed over the ALPL to check for binding. […] The longer peptides derived from TTM-002,
were also flowed over the his-tagged ALPL captured on the CM5 sensor chip pre-immobilized with anti-His antibody.
Binding and interaction between the phosho-peptides and the ALPL receptor were also measured by SPR. The biotinylated and phosphorylated peptides in Table 38 were captured on the streptavidin biosensor chip along with their non-phosphorylated counterparts, […] (SEQ ID NO: 4500) and […] (SEQ ID NO: 4503). ALPL and buffer were passed over the peptides to monitor binding. The concentration of ALPL used ranged from 0 to 500 nM (0 nM, 125 nM, 250 nM, and 500 nM).
In a second experiment, his-tagged ALPL was first captured on a CM5 sensor chip pre-immobilized with anti-His antibody. The phosphorylated peptides in Table 38 and their non-phosphorylated counterparts, […] (SEQ ID NO: 4500) and […] (SEQ ID NO: 4503) and buffer were flowed over the ALPL protein to monitor binding.

Molecule | fold increase in binding/internalization in cells expressing ALPL [1] | fold increase in transduction by luciferase assay in cells expressing ALPL [2] | binding to ALPL by SPR, His-tagged ALPL captured on chip [3] | Luciferase Activity (RLU) [2] | transduction by immunofluorescence microscopy in cells expressing ALPL ([2]; GFP, compared to AAV9 control capsid)
AAV9: wild-type AAV9 control capsid [reference compound] | unaffected | not affected | No detectable binding |  | 
B1 | 3 fold |  | Binding to ALPL was detected | 93,268 RLU | 
B2 | 6 fold | 45 fold | Binding to ALPL was detected | 46,182 RLU | a significant increase in the transduction
